{"source": "the nanobody polyreactivity screen of Harvey et al. (2022)"}
{"experiment": "yeast display, Sf9 membrane polyspecificity reagent, FACS + sequencing; frameworks hold sequencing errors", "how_it_was_run": "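Nanobodies from a synthetic yeast display library (Saccharomyces cerevisiae BJ5465), induced 36–48 hours with galactose, were stained 1 hour at 4 °C with 10% biotinylated, detergent-solubilized Sf9 membrane reagent, enriched on streptavidin microbeads, then FACS-sorted. Anti-HA (expression) and streptavidin (reagent binding) fluorescence set low and high (top ~1%) gates. Polyreactivity labels come from the gate of origin. Genes were colony-PCR amplified, MiSeq 2 × 250 sequenced and filtered by CDR length.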"}
{"sequence": "QVQLVESGGGLVQAGGSLRLSCAASGRTFHYYTMGWYRQAPGKERELVAAISQSGGRTYYADSVKGRFTISRDNAKNTVYLQMNSLKPEDTAVYYCAAVSWRVISDYRIVGYDYWGQGTQVTVSS", "polyreactivity (PSR sort gate)": "low polyreactivity"}
{"sequence": "QVQLVESGGGLVQAGGSLRLSCAASGSIFDYNAMGWNRQAPGKDRELVAAISSGGSTYYADSVKGRFTISRDNAKNTVYLQMNSLKPEDTAVYYCAVKFWMVIQFDYWGQGTQVTVSS", "polyreactivity (PSR sort gate)": "low polyreactivity"}
{"sequence": "QVQLVESGGGLVQAGGSLRVSCAASGSNFPRYAMGWYRQAPGKERELVAAISGRGGSTYYADSVKGRFTISRDNAKNTVYLQMNSLKPEDTAVYYCNAVGHTSIRRALDILDYWGQGTQVTVSS", "polyreactivity (PSR sort gate)": "high polyreactivity"}
{"sequence": "QVQLVESVGGLVQAGGSLRLTCAASGSIFKYYDMGWYRQAPGTERELVAAISSNGGRTYYADSVKGRFTISRDNAKNTDYLQMNSLKPEDTAVYYCARRFRRTGESEYDYWGQGTQVNVSS", "polyreactivity (PSR sort gate)": "high polyreactivity"}
{"sequence": "QVQLVESGGGLVQAGGSLRLSCAASGIIFGYNAMGLYRQAHGKERELVASIDVSGGITYYADSVKGRFTISRDNAKNTVYLQMNSLKPEDTAVYYCAAAVYGRGSPHYYWGEGTQVTVSS", "polyreactivity (PSR sort gate)": "high polyreactivity"}
{"sequence": "QVQLQESGGGLVQAGGNLRLSCAACGNIFPSAVMGWYRQALGKEREFVATINSGSNTYYADSVKGRFTISRDHAKNTVYLQTNSLKLEDTAVYYCAAYFKLPAWHTYWGQGTQVTVSS", "polyreactivity (PSR sort gate)": "low polyreactivity"}
{"sequence": "QVQLVESGGGLVQAGGSLRLSCAASGFTFYSYAMGWYRQAPGKERELVAAISKRGGDTSYADSVKGRFTISRDNAKNTVYLQMNSLKPEDTAVYYCAKVYVPYGSSGGFLSRYNYWGQGTQVTVSS", "polyreactivity (PSR sort gate)": "high polyreactivity"}
{"sequence": "QVQLVESVGGLVQAGGSLRLSCAASGGTFFYNSMGWYRQAPGKEREFVAAINGGTSTNYADSVKGRFTISRDNAKNTVYLQMNSLKPEDTAVYYCAAVYRRLGRFDWYDYWGQGTQVTVSS", "polyreactivity (PSR sort gate)": "low polyreactivity"}
{"sequence": "QVQLVESGGGLVQAGGSLRLSCAASGRTFSVNDMGRYRQAPGKEREMVAAISFSGGSTYYADSVKGRFTISRDDAKNTVYLQMNSLKPEDTAVYYCAAEAYPSWFYVITGFGIYDYWGQGTQVTVSS", "polyreactivity (PSR sort gate)": "high polyreactivity"}
{"sequence": "QVQLVESGGGLVQAGGSLRLSCAASGRTFIPYAMGWYRQAPGKERELVAAITSSGGRTYYADSVKGRFTISRDNAKNTVYLQMNSLKPEDTAVYYCNKYARGYDMDYWGQGTQVTVSS", "polyreactivity (PSR sort gate)": "high polyreactivity"}
{"sequence": "QVQLVESGGGLVQAGGSLRLSCAASGFTFIYYAMGWYRQAPGKERELVAAIRWSGGSTYYADSVKGRFTISRDNAKNTVYLQMNSLKPEDTAVYYCAASWYWFAQKRVYYWGQGTQVTVSS", "polyreactivity (PSR sort gate)": "high polyreactivity"}
{"sequence": "QVQLVESGGGLVQAGGSLRLICAASGSTFGPYDMGWYRQAPGKERELVADITSGGSTYYADSVKGRFTISRDNAKNTVYLQMNSLKPEDTAVYYCAADRVWPYYQYDYWGQGTQVTVSS", "polyreactivity (PSR sort gate)": "low polyreactivity"}
{"sequence": "QVQLVESGGGLVQAGGSLRLSCAASGRIFSYYAMGWYRQAPGKERELVAAISRTGGRTYYADSVKGRFTISRDNAKNTVYLQKNSLKPEDTAVYYCNVVGRRYWHWDQALDYWGQGTQVTVSS", "polyreactivity (PSR sort gate)": "high polyreactivity"}
{"sequence": "QVQLVESGGGLVQAGASLRLSCAASGSIFRGNAMGWYRQAPGKERQLVAAITRSGGRTYYADSVKGRFTISRDNAKNTVYLQMISMKPEDTAVYYCAAVSSYSRYRRTYYYWGHGTQVTVSS", "polyreactivity (PSR sort gate)": "high polyreactivity"}
{"sequence": "QVQIVESGGGLVQAGGSLRISCAASGSIFIYYAMGWYRQAPGKDRELVAAISNGGSTNYADSVKGRFTISRDNANNTVYLLMNRLTPEDTSVFYCNKQYWYWSNTLTIRDYWGQGTQVTVSS", "polyreactivity (PSR sort gate)": "low polyreactivity"}
{"sequence": "QVQLVESGGGLVQAGGSLRLSCAASGSIFSHKVMGWYRQAPGKERELVAAITYRGGSTYYADSVKGRFTISRDNAKNTVYLQMNSRKPEDTAVYYCAALNEVSTYHGFDYWGQGTQVTVSS", "polyreactivity (PSR sort gate)": "low polyreactivity"}
{"sequence": "QVQLVESGGGLVQAGGSLRLSCAACGTIFRRYATGSYRQAPGKERELVAAISSGGSTYADSVKGRFTISRDNAKNTVYFQMNSLKPEDTAVYYCAAYYQLGRHPGTPNGYDYWGHGTQVTVSS", "polyreactivity (PSR sort gate)": "low polyreactivity"}
{"sequence": "QVQLVESGGGLVQAGGSLRLSCAASKESINAMGWYRQAPGKERELVAAIGWSGSSTYYADSVKGRFTISRDNAKNTVYLQMNSLKPEDTAVYYCAADTTTGDRGFDYWGQGTQVTVSS", "polyreactivity (PSR sort gate)": "high polyreactivity"}
{"sequence": "QVQVVESGGGLVQAGGSLRLSCAAYGRTISAYAMGWYRQAPVKERELVARITRYGGPTYYADSVKGRFTISRDYAKYTDYLQMNSLKAEVTAVDYCAARKYHLRTAYVYWGQGTEVTVSS", "polyreactivity (PSR sort gate)": "low polyreactivity"}
{"sequence": "QVQLVESGGGLVQAGGSLRLSCAASGIIFYAYVMGWYRQAPGKERELVAAITVSGGSTYYADSVKGRFTISRDNAKNTVYLQMNSLKPEDTAVYYCAADWNFYQRTFDSWGQGTQVTVSS", "polyreactivity (PSR sort gate)": "low polyreactivity"}
{"sequence": "QVHLVESGGGLVQAGGRLRLSCAASGFTFYKYAMGWYRQAPGKERELVAAITWSGGRTYYADSVKGRFTISRDNAKNTVYLQMNSLKPEDTAVYYCAADLHKLARYDYWGQGTQVTVSS", "polyreactivity (PSR sort gate)": "high polyreactivity"}
{"sequence": "QVQLVESGGGLVQAGGSLRLSCAASGSTFVYYAMGWYRQAPGKEREFVAAISYSGGNTYYADSVKGRFTISRDNAMNTVYLQMNSLKPEDTAVYYCAAYYYYFYHKVIWYELDYWGQGTQVTVSS", "polyreactivity (PSR sort gate)": "low polyreactivity"}
{"sequence": "QVQLVESGGGLVQAGGSLRLSCAASGFTIWSYAMGWYRQAPGKERELVAAINYRGTSTYYADSVKGRFTISRDNAKNTVYLQMHSLKPEDTAVYYCAARYYTWQRPTYDYWGQGTQVTVSS", "polyreactivity (PSR sort gate)": "high polyreactivity"}
{"sequence": "QVQLVESGGGLVQAGGSLRLSCAASGSIFDWNGMGWYRQAPGKERELVAAITWRGGRTYYADSVKGRFTISRDNAKNTVYLQMNSLKPEDTAVYYCAATRFFYSRYNYWGQGTQVTVSS", "polyreactivity (PSR sort gate)": "high polyreactivity"}
{"sequence": "QVQLQESGGGLVQAGGILRMSCAASGTIFSEANMGWYRQAPGKERELVATIGQGSTTNYADSVKGRFTISRDNAKNTVYLQMNSLKPEETAVYYCAVVTVDAVGFVYWCQGTQVTVSS", "polyreactivity (PSR sort gate)": "low polyreactivity"}
{"sequence": "QVQLVESRGGLVQAGGSLRLSCAASGSTCFTNDMGWYRQAPGTERELVASISPSTGSTYYADSVKGRVTISRDNAKNTVSLQMNSLKPDDTAVYYCAADEWYYSYNDGNLYDYWGQGTQVTVSS", "polyreactivity (PSR sort gate)": "low polyreactivity"}
{"sequence": "QVQLVESGGGVVQAGGSLRISCAASGSTFAANAMGWYRQAPGKERELVAAISTSGGRSYYADSVKGRFTISRDNAKNTLYLQMNSLKPEDSAGYYCAAYSRTSDRDFDYWGQGTQVTVSS", "polyreactivity (PSR sort gate)": "high polyreactivity"}
{"sequence": "QVQLVESGGGLVQAGGSLRLSCAASGRIFTYYAMGWYRQAPGKERELVAAISTRGGNTYYADSVKGRFTISRDNAKNSVYLQMNSLKPEDTAVYYCSKENYYGGGFDYWGQGTQVTVSS", "polyreactivity (PSR sort gate)": "high polyreactivity"}
{"sequence": "QVQLVESGGGLVQAGGTLRLSCAASGSIFIPYAMGWYRQEPGKERELVAAISGSGTSTNYADSVKGRFTISRDNAKITVYFQMISLKPEDTAVYYCAKGYSNFYRSDYWGQGTQVTVSS", "polyreactivity (PSR sort gate)": "high polyreactivity"}
{"sequence": "QVQLVESGGGLVQAGGSLRLSCDASGRTSGINAMGWYRQAPGKERELVAAISSGGRTYYADSVKGRFTISRDNAKNTVYLQMNSLKPEDTAVYYCAAVIHWSLYRRMEYWGQGTQVTVSS", "polyreactivity (PSR sort gate)": "high polyreactivity"}
{"sequence": "QVQLVESGGGLVQAGGSLRLSCAASGINFKGNAMGWYRQAPGKERELVATISSGGTTNYADSVKGRFTISRDNAKNTVYLQMNSLKPEDTAVYYCAKRGYYRSRRYDYWGQGTQVTVSS", "polyreactivity (PSR sort gate)": "high polyreactivity"}
{"sequence": "QVQLVESGGGLVQAGGSLRLSCAASGRIFYEYAMGWYRQAPGKEREVVAAISNSGGSTSYADSVKGRFSISRDNATNTDYLQMNSLQPEDTAVSYCAAGSHSGRAYYYWGEGTQVTVSS", "polyreactivity (PSR sort gate)": "high polyreactivity"}
{"sequence": "QVQLVESGGGLVQAGGSLRLSCAASGNIFDRYVMGWYRQAPGKERELVAAISVSGGSTYYADSVKGRFTISRDNAKNTVYLQMNSLKPEDTAVYYCAAHSRLINWYDYWGQGTQVTVSS", "polyreactivity (PSR sort gate)": "high polyreactivity"}
{"sequence": "QVQLVESGGGLVQAGGSLRLSCAASGRIFAFYARGWYRQAPGKERELVAAITSGGSTKYADSVKGRFTISRDNAKNTVYLQMNSLKPEDTAVYYCAAQYRYQRYSYAMEYWGQGTQVTVSS", "polyreactivity (PSR sort gate)": "high polyreactivity"}
{"sequence": "QVQLVESGGGLVQAGGSLRLSCAASGFTFSRYAMAWYRQAPGKERELVAAITWSGGRTYYADSVKGRFTISRDNAKNTVYLQMNSLKPEATAVYYCAAVYHVWKYHYDYWGQGTQVTVSS", "polyreactivity (PSR sort gate)": "high polyreactivity"}
{"sequence": "QVQLVESGGGLVQAGGSLRLSCAASGRIFEVNVMGWYRQAPGKERELVAAITTGGGSTYYADSVKGRFTISRDNAKNTVYLQMNSLKPEDTAVYYCAAEPILIDEYWGQGTQVTVSS", "polyreactivity (PSR sort gate)": "low polyreactivity"}
{"sequence": "QVQLVESGGGLVQAGGSLRLSCAASGFIFTANAMGWYRQAPGKEMELVAAISRSGGRTYYADSVKGRFTISRDNAKNTVYLQMNSLKPEDTAVYYCAAPYRSYDWYDYWGQGTQVTVSS", "polyreactivity (PSR sort gate)": "high polyreactivity"}
{"sequence": "QVQLVESGGGLVQAGGSLRLSCAASGRTIWTYVMGWYRQAPGKERELVAAISRSGSSTYYADSVKGRFTISRDNAKNTVYLQMNSLKPEDTAVYYCAASSPWEQSHDQFYYWGQGTQVTVTS", "polyreactivity (PSR sort gate)": "low polyreactivity"}
{"sequence": "QVQLVESGGGLVQAGGRLRLSCAASGFTFRRYTMGWYRQAPGKERELVAVISASGGSTYYADSEKGRFTISRDNAKNTVYLQMNSLKPEDTAVYYCNAVGTPYGLDEYWGQGTQVTVSS", "polyreactivity (PSR sort gate)": "high polyreactivity"}
{"sequence": "QVQLVESGGGLVQAGGSLRLSCGASGSTFAINAMGWYRQAPGKERELVAAINWSGTTTYYADSVKGRFTISRDNAKNTVYLQMNSLKPEDTAVYYCNARYYVLRGYDYWGQGTQVTVSS", "polyreactivity (PSR sort gate)": "low polyreactivity"}
{"sequence": "QVQLVESWGGLVQAGGSLRLSCGASGYSFQPYTMGWYRQAPGKERELVAAISKSGTRTYYADSVKGRFTISRDNAKNTVYLQMNSLKPEDTAVYYCAARYTGNLFDYWGQGTQVTVSS", "polyreactivity (PSR sort gate)": "high polyreactivity"}
{"sequence": "HVQLVESGGGLVQAGGSLRLSCAASGRTFYRYAKGWYRQAPGKEREFVAAISRSGGSTYYAVSVKGRFTISRDNAKNTVYLQMNSLKPEDTAVFYSNKYYWYPYGRAHDYGYWGQGTQVTVSS", "polyreactivity (PSR sort gate)": "high polyreactivity"}
{"sequence": "QVHLVESGGGLVQAGGSLRLSSAPSGLTLETNAMGWSRQAPGKERELVAGITYSGGTTYYADSVKGRFTISRDNAKNTVYLQMNSLKPEDTAVYYCAAHTSTSGHNFWGQGTQVTVSS", "polyreactivity (PSR sort gate)": "low polyreactivity"}
